Experimental data from patent publication US20240254220A1, “COMBINED THERAPY USING ANTI-CD300C ANTIBODY” (CentricsBio, Inc., priority 2021, published 2024).

Experiments:
[1] = test system: colon cancer cell line (CT26) tumor; test: Tumor-infiltrating lymphocytes and macrophages in CT26 cancer tissue after combined use; assay type: in vivo, BALB/c mice
From the text: In order to identify effects of the anti-CD300c monoclonal antibody on tumor-infiltrating lymphocytes (TIL) in a tumor microenvironment (TME), on day 25 of an experiment conducted by the same method as in Experimental Example 7.1, the mice were euthanized, and injected intravascularly with 1% paraformaldehyde (PFA) to perform perfusion, and then the cancer tissue was obtained. The obtained cancer tissue was fixed using 1% PFA, and sequentially dehydrated using 10%, 20%, and 30% sucrose solutions. The dehydrated cancer tissue was frozen in OCT compound (optimal cutting temperature compound), and then the cancer tissue was sectioned to a thickness of 50 μm using a cryotome. The tissue was incubated at 37° C. for 1 hour in a mixed solution of collagenase D (20 mg/mL) and DNase I (2 mg/mL). Thereafter, the resultant product was filtered through a 70 μm cell strainer, followed by the lysis of red blood cells, and then again filtered through a nylon mesh for making single cells. To suppress non-specific reactions in the single cell suspension, the cells were incubated with a CD16/32 antibody (Invitrogen) for 1 hour, and then cell viability was identified, and CD8+ T cells and CD31+ cancer blood vessel cells, which are tumor-infiltrating lymphocyte markers, were stained.
In order to identify whether the anti-CD300c monoclonal antibody increases M1 macrophages in the cancer tissue of mouse models, the cancer tissue sections prepared by the same method as in Experimental Example 7.2 were stained with antibodies to the M1 macrophage marker iNOS and the M2 macrophage marker CD206, and analyzed by FACS.
In order to identify whether the anti-CD300c monoclonal antibody CL7 promotes CD8+ T cell immunity in mouse tumor models, on day 25 of the experiment conducted by the same method as in Experimental Example 7.1, the mice were euthanized, and injected intravascularly with 1% paraformaldehyde (PFA) to perform perfusion, and then the cancer tissue was obtained. The obtained cancer tissue was fixed using 1% PFA, and sequentially dehydrated using 10%, 20%, and 30% sucrose solutions. […]

[2] = test system: colon cancer cell line (CT26) tumor; test: Nanostring Immune profiling of CT26 tumor tissue; assay type: in vivo, BALB/c mice; conditions: 25 mg/kg i.p., tumor RNA, vs control
Experimental: In order to identify changes in expression of immune cell- and tumor microenvironment-related markers when solid cancer models are administered the anti-CD300c monoclonal antibody (CL7) produced in Example 1, a colon cancer cell line (CT26) at 2×10^5 cells was transplanted by subcutaneous injection into 8-week-old BALB/c mice to prepare syngeneic mouse tumor models. Animal breeding and experiments were all conducted in a specific pathogen free (SPF) facility. In addition, 12 days after transplantation of the colon cancer cell line, the mice with a tumor size of 50 mm^3 to 100 mm^3 were separately administered the anti-CD300c monoclonal antibody, and for a control group, the mice were injected with the same amount of phosphate buffered saline (PBS). The mice were intraperitoneally injected with 25 mg/kg twice a week for two weeks over a total of 4 times. On day 25 after the injection, the mice were euthanized, and the tumor tissue was prepared. RNA was extracted and purified therefrom, and changes in dendritic cell markers, macrophage markers, tumor microenvironment (TME) markers, Th1 response markers, or Th2 response markers were identified through Nanostring Immune profiling.
On the basis of the Nanostring Immune profiling results obtained in Example 2.1, it was identified which immune checkpoint markers show a significant difference in expression compared with the control group when syngeneic mouse tumor models are administered the anti-CD300c monoclonal antibody.

[3] = test system: mouse macrophages (Raw264.7); test: TNF-α production in mouse macrophages (M1 differentiation); assay type: cell-based; conditions: Raw264.7, 10 μg/mL
Experimental: In order to identify whether anti-CD300c monoclonal antibodies can promote the differentiation from mouse macrophages into M1 macrophages, mouse macrophages (Raw264.7) were dispensed into a 96-well plate at a concentration of 1×10^4 cells/well, and then treated with 10 μg/mL CL7, followed by incubation. Thereafter, the production amount of TNF-α was identified by an ELISA kit (Human TNF-α Quantikine kit, R&D Systems).

CD300c antigen = target: T1, CD300c antigen (Homo sapiens, UniProt Q08708); test: Binding ELISA of CL7 (Experimental Example 2.3); conditions: CL7 diluted from 10 μg/mL
T1 sequence (Q08708 21-224): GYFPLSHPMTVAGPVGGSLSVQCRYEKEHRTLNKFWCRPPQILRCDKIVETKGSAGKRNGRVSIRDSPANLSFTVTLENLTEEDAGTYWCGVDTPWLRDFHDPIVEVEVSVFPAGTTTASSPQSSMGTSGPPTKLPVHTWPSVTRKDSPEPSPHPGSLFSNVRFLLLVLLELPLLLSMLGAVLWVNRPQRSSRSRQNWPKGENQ
Experimental: CD300c antigen (250 ug/mL) was diluted to a concentration of 800 ng/mL in coating buffer (0.1 M sodium carbon ate, pH 9.0), placed into a 96-well microplate at 100 μL per well, and incubated at 4° C. overnight. The next day, the microplate was washed three times with 200 μL of PBST. Thereafter, 200 μL of a blocking buffer (5% skim milk) was added thereto, followed by blocking at room temperature for 1 hour. The anti-CD300c monoclonal antibody CL7 was diluted to 200 μg/mL in PBS, and the concentration thereof was checked by measurement using Nanodrop (product name: NanoDrop One/One, manufactured by Thermo Fisher Scientific). Subsequently, CL7 was diluted in quadruplicate with PBS starting from 10 μg/mL, and added at 100 μL each, followed by incubation at room temperature for 1 hour. After the incubation, the microplate was washed three times with […] of PBST. A secondary antibody (conjugated anti-Fc IgG) was diluted 1:10,000 in blocking buffer, and added at 100 μL, followed by incubation at room temperature for 1 hour, and then washed three times with 200 μL of PBST. […] Then, 50 μL of 1 N sulfuric acid was added to stop development, and measurement was performed at 450 nm using a microplate reader (product name: Varioskan LUX) to obtain binding affinity results.

[4] = CT26 cancer tissue, day 25, FACS

B1: CL7: anti-CD300c monoclonal antibody, VH3VL1 phage library, VH SEQ ID 327, VL SEQ ID 328 (antibody, V domains shown)
VH: EVQLLESGGGLVQPGGSLRLSCAASGFTFSRYAMSWVRQAPGKGLEWVSAISGSGGSTYYADSVKGRFTISRDNSKNTLYLQMNSLRAEDTAVYYCARSSQGIFDIWGQGTLVTVSS
VL: QSVLTQPPSASGTPGQRVTISCSGNNIGTRRVHWYQQLPDTAPKLLIYSKNNRPSGVPDRFSGSKSGTSASLAISGLRSEDEADYYCAAWDDSLSGPVFGGGTKLTVL
modifications: CL7 Heavy Chain Variable Region; CL7 Light Chain Variable Region
[1]; [4]
  M1 macrophages (iNOS) in cancer tissue: remarkably increased
  M2 macrophages (CD206) in cancer tissue: hardly observed
[1]; Experimental Example 7.4, CT26 cancer tissue sections, day 25
  CD8+ T cells in cancer tissue: remarkably increased
[2]
  expression of M1 macrophage markers CCR7, CD80: significantly increase
  expression of Th1 response markers Tbx21, Stat1, Stat4, Ifn-g, Cxcr3: increase
  expression of agonistic immune checkpoints ICOS, OX40, Gitr, Cd27, Cd28: increases
  expression of dendritic cell markers Bst2, CCL8, Xcl1: significantly increase
  expression of inhibitory immune checkpoints PD-1, CTLA-4, Lag3: increases
  expression of tumor microenvironment markers vegfa, pdgfrb, Col4a1, Hif1a: reduction
[3]
  production level of TNF-α: increased
CD300c antigen
  binding to CD300c: bound to CD300c in a concentration-dependent manner
